Columns and labels:
[1] = molecular target: Human transferrin receptor on K562 cells (human) (UniProt P02786); assay: FACS of K562 cells with BSA-coupled fluorescent beads (negative control), 4 C, 1 h
[2] = molecular target: Human transferrin receptor on K562 cells (human) (UniProt P02786); assay: FACS of K562 cells with BSA-coupled fluorescent beads (negative control), 37 C, 1 h
[3] = molecular target: Human transferrin receptor on K562 cells (human) (UniProt P02786); assay: FACS of K562 cells with BSA-coupled fluorescent beads (negative control), 37 C with sodium azide, 1 h

Sequence of Human transferrin receptor on K562 cells (human) (P02786 whole entry): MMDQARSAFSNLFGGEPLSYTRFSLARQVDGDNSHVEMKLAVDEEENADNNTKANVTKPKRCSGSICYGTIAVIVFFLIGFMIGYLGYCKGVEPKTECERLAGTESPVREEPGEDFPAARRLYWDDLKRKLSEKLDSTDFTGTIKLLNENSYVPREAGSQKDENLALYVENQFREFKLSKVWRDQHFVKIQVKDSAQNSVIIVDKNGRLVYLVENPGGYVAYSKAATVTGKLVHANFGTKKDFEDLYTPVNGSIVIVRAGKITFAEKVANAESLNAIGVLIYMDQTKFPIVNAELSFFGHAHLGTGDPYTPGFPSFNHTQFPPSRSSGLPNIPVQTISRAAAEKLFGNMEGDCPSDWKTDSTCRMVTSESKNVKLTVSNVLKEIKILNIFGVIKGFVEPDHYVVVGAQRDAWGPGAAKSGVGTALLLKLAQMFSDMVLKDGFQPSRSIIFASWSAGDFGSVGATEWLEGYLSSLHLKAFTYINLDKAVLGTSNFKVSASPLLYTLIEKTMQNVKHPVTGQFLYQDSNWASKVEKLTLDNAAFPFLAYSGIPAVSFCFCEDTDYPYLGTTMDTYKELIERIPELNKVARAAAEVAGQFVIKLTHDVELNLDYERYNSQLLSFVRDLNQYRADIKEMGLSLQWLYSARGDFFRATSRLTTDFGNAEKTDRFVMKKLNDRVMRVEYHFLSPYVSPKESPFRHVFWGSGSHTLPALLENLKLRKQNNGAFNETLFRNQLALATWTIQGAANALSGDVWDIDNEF

## BSA (negative control on fluorescent beads) (from UniProt P02769 25-607)
[1]
  Mean fluorescence intensity (MFI): 1.45 MFI
[2]
  Mean fluorescence intensity (MFI): 9.07 MFI
[3]
  Mean fluorescence intensity (MFI): 3.49 MFI

Source: patent US20130171061A1
